# According to article PMC8764530, “Pseudomonas aeruginosa C-Terminal Processing Protease CtpA Assembles into a Hexameric Structure That Requires Activation by a Spiral-Shaped Lipoprotein-Binding Partner” (mBio, 2022):
# Target: the molecule itself
# Test: SEC; gel filtration of CtpA proteins, Superdex 200 prep-grade (16 × 600 mm), 10 mM Tris pH 8.0, 150 mM NaCl
row,Protein,stoichiometry N
1,"CtpA(ΔC6) (enzyme, Pseudomonas aeruginosa CtpA, ΔN37 construct (from amino acid 38) with the last six residues Ser-431 to Asn-436 removed; also called CtpA(ΔC6) dimer; source: E. coli BL21(DE3), purified (HiTrap-Ni, thrombin, HiTrap-Q, Superdex 200); not shown: His6, N-terminal, cleaved) SAPLPLDELRTFAEVLDRVKAAYVEPVDDKTLLENAIKGMLSNLDPHSAYLGPEDFAELQESTSGEFGGLGIEVGSEDGFIKVVSPIDDTPAARAGIQPGDLIVQIDGKPTKGQSMTEAVDSMRGKAGSPITLTIVRDGGRPFDVELKRAIIKVKSVKSQVLEPGYAYLRITQFQVNTGEEVVKALNQLRKDNKGRLKGLVLDLRNNPGGVLQSAVEVADAFLTKGLIVYTKGRIANSELRFSADPADPSDKVPLVVLINGGSASAAEIVAGALQDQKRAILMGTDSFGKGSVQTVLPLNNDRALKLTTALYYTPNGRSIQAQGIVPDIEVGRAKVTQERSSFEGFKEADLQGHLANGNGGADRPTGKRAAPSERPQDSDYQLSQALSLLKGL",2
2,"CtpA-L426K L430K (enzyme, Pseudomonas aeruginosa CtpA, ΔN37 construct (amino acid 38 to the C terminus, Asn-436) with L426K and L430K; also called LLKK; source: E. coli BL21(DE3), purified (HiTrap-Ni, thrombin, HiTrap-Q, Superdex 200); not shown: His6, N-terminal, cleaved) SAPLPLDELRTFAEVLDRVKAAYVEPVDDKTLLENAIKGMLSNLDPHSAYLGPEDFAELQESTSGEFGGLGIEVGSEDGFIKVVSPIDDTPAARAGIQPGDLIVQIDGKPTKGQSMTEAVDSMRGKAGSPITLTIVRDGGRPFDVELKRAIIKVKSVKSQVLEPGYAYLRITQFQVNTGEEVVKALNQLRKDNKGRLKGLVLDLRNNPGGVLQSAVEVADAFLTKGLIVYTKGRIANSELRFSADPADPSDKVPLVVLINGGSASAAEIVAGALQDQKRAILMGTDSFGKGSVQTVLPLNNDRALKLTTALYYTPNGRSIQAQGIVPDIEVGRAKVTQERSSFEGFKEADLQGHLANGNGGADRPTGKRAAPSERPQDSDYQLSQALSKLKGKSVTRGN",~2
3,"CtpA-L426A L430A (enzyme, Pseudomonas aeruginosa CtpA, ΔN37 construct (amino acid 38 to the C terminus, Asn-436) with L426A and L430A; also called LLAA; source: E. coli BL21(DE3), purified (HiTrap-Ni, thrombin, HiTrap-Q, Superdex 200); not shown: His6, N-terminal, cleaved) SAPLPLDELRTFAEVLDRVKAAYVEPVDDKTLLENAIKGMLSNLDPHSAYLGPEDFAELQESTSGEFGGLGIEVGSEDGFIKVVSPIDDTPAARAGIQPGDLIVQIDGKPTKGQSMTEAVDSMRGKAGSPITLTIVRDGGRPFDVELKRAIIKVKSVKSQVLEPGYAYLRITQFQVNTGEEVVKALNQLRKDNKGRLKGLVLDLRNNPGGVLQSAVEVADAFLTKGLIVYTKGRIANSELRFSADPADPSDKVPLVVLINGGSASAAEIVAGALQDQKRAILMGTDSFGKGSVQTVLPLNNDRALKLTTALYYTPNGRSIQAQGIVPDIEVGRAKVTQERSSFEGFKEADLQGHLANGNGGADRPTGKRAAPSERPQDSDYQLSQALSALKGASVTRGN",~2
